From PMC7878818 (2021)
Ends that are not written are not given here. Me3 = trimethyl group on lysine (trimethyl-lysine); Me2 = dimethyl group on lysine (dimethyl-lysine)

Tests used:
Assay in all cases: ITC
[1] = target: Spindlin1 W62A/W72A/C11orf84 complex (human, UniProt Q9Y657 50-262; Q9BUA3 1-381, W62A | W72A)
[2] = target: Spindlin1 F141A/C11orf84 complex (human, UniProt Q9Y657 50-262; Q9BUA3 1-381, F141A)
[3] = target: Spindlin1 W72A/C11orf84 complex (human, UniProt Q9Y657 50-262; Q9BUA3 1-381, W72A)
Spindlin1 W72A/C11orf84 complex, sequence (Q9Y657 50-262 W72A, chain 1 of 2): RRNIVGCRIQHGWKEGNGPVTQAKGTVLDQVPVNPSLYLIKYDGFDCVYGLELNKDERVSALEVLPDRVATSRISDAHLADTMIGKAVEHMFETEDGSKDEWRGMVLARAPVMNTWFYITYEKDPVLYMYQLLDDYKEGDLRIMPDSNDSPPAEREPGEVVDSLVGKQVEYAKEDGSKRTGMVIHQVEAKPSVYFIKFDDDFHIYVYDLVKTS
Spindlin1 W72A/C11orf84 complex, sequence (Q9BUA3 whole entry, chain 2 of 2): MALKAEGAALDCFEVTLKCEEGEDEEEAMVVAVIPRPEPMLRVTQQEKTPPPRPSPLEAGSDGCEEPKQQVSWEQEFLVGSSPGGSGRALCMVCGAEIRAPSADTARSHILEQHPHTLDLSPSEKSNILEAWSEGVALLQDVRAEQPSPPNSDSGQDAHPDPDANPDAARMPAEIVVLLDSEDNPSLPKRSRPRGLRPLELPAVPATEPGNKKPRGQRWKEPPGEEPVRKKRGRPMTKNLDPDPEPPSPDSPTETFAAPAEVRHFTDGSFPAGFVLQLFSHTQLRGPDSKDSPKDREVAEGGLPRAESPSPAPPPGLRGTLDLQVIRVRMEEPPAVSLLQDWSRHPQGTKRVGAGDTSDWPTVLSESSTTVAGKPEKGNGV

[4] = target: Spindlin1 Y91A/C11orf84 complex (human, UniProt Q9Y657 50-262; Q9BUA3 1-381, Y91A)
Spindlin1 Y91A/C11orf84 complex, sequence (Q9Y657 50-262 Y91A, chain 1 of 2): as the sequence (Q9Y657 50-262 W72A, chain 1 of 2) above, with A23W, Y42A counted along it
Spindlin1 Y91A/C11orf84 complex, sequence (Q9BUA3 whole entry, chain 2 of 2): as the sequence (Q9BUA3 whole entry, chain 2 of 2) above

[5] = target: Spindlin1 Y98A/C11orf84 complex (human, UniProt Q9Y657 50-262; Q9BUA3 1-381, Y98A)
Spindlin1 Y98A/C11orf84 complex, sequence (Q9Y657 50-262 Y98A, chain 1 of 2): as the sequence (Q9Y657 50-262 W72A, chain 1 of 2) above, with A23W, Y49A counted along it
Spindlin1 Y98A/C11orf84 complex, sequence (Q9BUA3 whole entry, chain 2 of 2): as the sequence (Q9BUA3 whole entry, chain 2 of 2) above

[6] = target: Spindlin1 W62A/C11orf84 complex (human, UniProt Q9Y657 50-262; Q9BUA3 1-381, W62A)
Spindlin1 W62A/C11orf84 complex, sequence (Q9Y657 50-262 W62A, chain 1 of 2): as the sequence (Q9Y657 50-262 W72A, chain 1 of 2) above, with W13A, A23W counted along it
Spindlin1 W62A/C11orf84 complex, sequence (Q9BUA3 whole entry, chain 2 of 2): as the sequence (Q9BUA3 whole entry, chain 2 of 2) above

[7] = target: Spindlin1 D173A/C11orf84 complex (human, UniProt Q9Y657 50-262; Q9BUA3 1-381, D173A)
Spindlin1 D173A/C11orf84 complex, sequence (Q9Y657 50-262 D173A, chain 1 of 2): as the sequence (Q9Y657 50-262 W72A, chain 1 of 2) above, with A23W, D124A counted along it
Spindlin1 D173A/C11orf84 complex, sequence (Q9BUA3 219-305, chain 2 of 2): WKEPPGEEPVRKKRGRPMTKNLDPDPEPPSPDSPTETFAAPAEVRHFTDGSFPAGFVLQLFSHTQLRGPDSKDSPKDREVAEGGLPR

[8] = target: Spindlin1/C11orf84 complex (human, UniProt Q9Y657 50-262; Q9BUA3 1-381)
Spindlin1/C11orf84 complex, sequence (Q9Y657 50-262, chain 1 of 2): as the sequence (Q9Y657 50-262 W72A, chain 1 of 2) above, with A23W counted along it
Spindlin1/C11orf84 complex, sequence (Q9BUA3 219-305, chain 2 of 2): as the sequence (Q9BUA3 219-305, chain 2 of 2) above

Spindlin1 W62A/W72A/C11orf84 complex, sequence (Q9Y657 50-262 W62A/W72A, chain 1 of 2): as the sequence (Q9Y657 50-262 W72A, chain 1 of 2) above, with W13A counted along it
Spindlin1 W62A/W72A/C11orf84 complex, sequence (Q9BUA3 whole entry, chain 2 of 2): as the sequence (Q9BUA3 whole entry, chain 2 of 2) above
Spindlin1 F141A/C11orf84 complex, sequence (Q9Y657 50-262 F141A, chain 1 of 2): as the sequence (Q9Y657 50-262 W72A, chain 1 of 2) above, with A23W, F92A counted along it
Spindlin1 F141A/C11orf84 complex, sequence (Q9BUA3 whole entry, chain 2 of 2): as the sequence (Q9BUA3 whole entry, chain 2 of 2) above

B1: H3K4me3K9me3 peptide (peptide)
chain: ARTK(Me3)QTARK(Me3)STG
A Kd [1] of 0.199 µM, a Kd [2] of 0.869 µM and a Kd [3] of 0.077 µM were found for B1 in this work. The Kd [4] was 0.059 µM, the Kd [5] was 0.08 µM and the Kd [6] was 0.071 µM. For the same binder, the Kd [7] was 0.057 µM.

B2: H3K4me3K9me2 peptide (peptide)
chain: ARTK(Me3)QTARK(Me2)STG
A Kd [8] of 0.042 µM was found for B2 in this work.

B3: H3K4me3R8me2a peptide (peptide)
chain: ARTK(Me3)QTAR(asymmetric Me2)KSTG
A Kd [8] of 0.082 µM was found for B3 in this work.

B4: H3K4me3 peptide (peptide)
chain: ARTK(Me3)QTARKSTG
A Kd [8] of 0.213 µM was found for B4 in this work.

B5: H3K9me3 peptide (peptide)
chain: ARTKQTARKSTG
modifications: K9me3
A Kd [8] of 2.88 µM was found for B5 in this work.
